Data as given in PMC2801713 (Molecular Biology of the Cell, 2010).

Target: GFP-WIP (wild type) (human, UniProt O43516 1-503)
Assay: far-Western, overlay or dot blot

Chain of GFP-WIP (wild type) (O43516 whole entry): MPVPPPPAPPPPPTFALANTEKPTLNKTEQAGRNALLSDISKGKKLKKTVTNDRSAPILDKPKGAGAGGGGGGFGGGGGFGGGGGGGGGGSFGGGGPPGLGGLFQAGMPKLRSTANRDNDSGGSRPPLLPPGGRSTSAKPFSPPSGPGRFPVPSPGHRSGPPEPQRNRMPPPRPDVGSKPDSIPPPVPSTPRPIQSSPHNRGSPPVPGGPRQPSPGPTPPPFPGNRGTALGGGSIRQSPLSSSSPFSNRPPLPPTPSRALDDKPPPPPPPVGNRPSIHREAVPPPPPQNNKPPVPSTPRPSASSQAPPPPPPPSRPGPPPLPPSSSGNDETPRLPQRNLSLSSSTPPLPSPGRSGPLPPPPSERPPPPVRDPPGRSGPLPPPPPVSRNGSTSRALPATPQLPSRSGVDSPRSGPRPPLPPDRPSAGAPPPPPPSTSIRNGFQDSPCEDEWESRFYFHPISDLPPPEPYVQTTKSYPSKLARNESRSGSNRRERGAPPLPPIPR

B1: His-mAbp1-GST (natural protein, mouse, UniProt Q62418 1-436, looked up)
chain: MAVNLSRNGPALQEAYVRVVTEKSPTDWALFTYEGNSNDIRVAGTGEGGLEELVEELNSGKVMYAFCRVKDPNSGLPKFVLINWTGEGVNDVRKGACANHVSTMANFLKGAHVTINARAEEDVEPECIMEKVAKASGANYSFHKESTSFQDVGPQAPVGSVYQKTNAISEIKRVGKDNFWAKAEKEEENRRLEEKRRAEEERQRLEEERRERELQEAARREQRYQEQHRSAGAPSPSSRTGEPEQEAVSRTRQEWESAGQQAPHPREIFKQKERAMSTTSVTSSQPGKLRSPFLQKQLTQPETSYGREPTAPVSRPAAGVCEEPAPSTLSSAQTEEEPTYEVPPEQDTLYEEPPLVQQQGAGSEHIDNYMQSQGFSGQGLCARALYDYQAADDTEISFDPENLITGIEVIDEGWWRGYGPDGHFGMFPANYVELIE
  binding result: binds
